The data set can be described thus: yeast display, Sf9 membrane polyspecificity reagent, FACS + sequencing; frameworks hold sequencing errors. The method, boiled down: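 Galactose-induced (36–48 hours) yeast carrying a synthetic nanobody display library were exposed to 10% biotinylated, detergent-solubilized Sf9 membrane reagent at 4 °C for 1 hour. FACS followed streptavidin microbead enrichment, using low and high (top ~1%) gates for expression (anti-HA) and reagent binding (streptavidin). Colony PCR, MiSeq 2 × 250 sequencing and CDR-length filtering followed. Labels for polyreactivity reflect the gate of origin.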
With “QVQLVESGGGLVQAGGSLRLSCAASGRTFYYNAMGWYRQAPGKEREMVADINWSGVRTYYADSVKGRFTISRDNAKNTVYLQMNSLKPEDTAAYYCAAERLLYKHYEEDYWGQGTQVTVSS”, the “polyreactivity (PSR sort gate)” value is “low polyreactivity”.

Take “QVQLVESGGGLVQAGGSLRLSCAASGRTFYYNAMGWYRQAPGKERQLVAAITSSGSTYYADSVKGRFTISRDNAKNTVYLQMNSLKPEDTAVYYCASVTSYSHYRLSGWYRFEYWGQGTQVTVSS”: the “polyreactivity (PSR sort gate)” value is reported as “high polyreactivity”. With “QVQLVESGGGLVQAGGSLRLSCAASGRTFYYNTMGWYRQAPGKERELVAAITRGGSTYYADSVKGRFTISRVNAKNTVYLQMNSLKPEETAVYYCNAPRYLRRYVKDHDYWGEGTQVTVSS”, the “polyreactivity (PSR sort gate)” value is “high polyreactivity”. Under “QVQLVESGGGLVQAGGSLRLSCAASGRTFYYYAMGWNRQAPGTERELVAAITTDGGNTYYADSVKGRFTISRDTAKNTVYLQMNSLKPEDTAVYYCATDGYEYTDYGSSGYDYWGQGTQVTVSS” stands “low polyreactivity”. Consider “QVQLVESGGGLVQAGGSLRLSCAASGRTFYYYAMGWSRQAPGKERELVAAIRWRATSTFYADSVKGRFTISRDNAKNTVYLQMNSLKPEDSAVYYCATTGGYRLQAQKYYYWGQGTQVTLSS”, for which the “polyreactivity (PSR sort gate)” value is “high polyreactivity”. In the case of “QVQLVESGGGLVQAGGSLRLSCAASGRTFYYYAMGWYIPAPGKERELVARISYSGSNTYYADSVKGRFTISRDTAKNTVYLQMNSLKREVTAGYYCAAGYLVWRDSATLDYWGQGTQVTVSS”, the “polyreactivity (PSR sort gate)” value is listed as “high polyreactivity”. Regarding “QVQLVESGGGLVQAGGSLRLSCAASGRTFYYYAMGWYRPAPGKERELVAAIRRSGSSTYYADSVKGRFTISRDNAKNTVYLQMNSLKPEDTAVYYCAAAVYQRARYYWGQGTQVTVSS”, the “polyreactivity (PSR sort gate)” value is on record as “high polyreactivity”. In the case of “QVQLVESGGGLVQAGGSLRLSCAASGRTFYYYAMGWYRQAPCKERELVSAITTDGGNTYYADSVKGRFTISRDNAKNTVYLQMNSLKPEDTAVYYCATDGYEYTDYGSSGYDYWGQGTQVTVSS”, the “polyreactivity (PSR sort gate)” value is “low polyreactivity”. As to “QVQLVESGGGLVQAGGSLRLSCAASGRTFYYYAMGWYRQAPGKERELVAAISGSGGSTYYADSVKGRFTISRDIAKNTVYLQMNSLKPEDTAVYYCAASGPRRRYDYWGQGTQVTVSS”, the “polyreactivity (PSR sort gate)” value is on record as “high polyreactivity”.

On to “QVQLVESGGGLVQAGGSLRLSCAASGRTFYYYAMGWYRQAPGKERELVAAISKSGGSTYYADSVKGRFTISRDNAKNTVYLQMNSLKPEDTAVYYCAALTTHAPHSYNYWGQGTQVTVSS”, for which the “polyreactivity (PSR sort gate)” value is reported as “low polyreactivity”.

For the sequence “QVQLVESGGGLVQAGGSLRLSCAASGRTFYYYAMGWYRQAPGKERELVAAISWSGGSTYYADSVKGRFTISRDNAKNTVYLQMNSLKPEDTAVYYCAARLPENSFGLYYYWGQGTQVTVSS”, the “polyreactivity (PSR sort gate)” value was “high polyreactivity”. “QVQLVESGGGLVQAGGSLRLSCAASGRTFYYYAMGWYRQAPGKERELVARISRGGSTNYADSVKGRFTISRDNAKNTVYLQMNILKPEDTAVYYCAKTISYTGRFWGYDYWGQGTQVTVSS”: the “polyreactivity (PSR sort gate)” value was “high polyreactivity”. In the case of “QVQLVESGGGLVQAGGSLRLSCAASGRTFYYYAMGWYRQAPGKERELVAVISWDDGSTYYADSVKGRFTISRDNAKNTVYLQMNSLKPEVTAVYYCAAYDYLDYADDYWGQGTQVTVSS”, the “polyreactivity (PSR sort gate)” value is “low polyreactivity”. On to “QVQLVESGGGLVQAGGSLRLSCAASGRTFYYYGRVWYRQAPGKERDFVAAITRSGGRTYYADSVKGRFTISRDNAKNTVYLQMNSLKPEDTAVYYCATGGYYRYSGLSVYGYPYEYWGQGTQVTVSS”, for which the “polyreactivity (PSR sort gate)” value is “high polyreactivity”. Regarding “QVQLVESGGGLVQAGGSLRLSCAASGRTFYYYTMGWYRQPPRKEREFVAAISWSGGSKYYADSVKGRFTISRDNAKNTVYLQMNSLIPEDTAVYYCNARSFATGSKVPARGYWVQGTQVTVSS”, the “polyreactivity (PSR sort gate)” value is reported as “high polyreactivity”.

As for “QVQLVESGGGLVQAGGSLRLSCAASGRTFYYYYTMGWYRQPPGKETELVAAISRSGSTNYADSVKGRFTISRDNAKNTVYLQMNSLKPEDTAVYYCARSYRSDGSRFGYWGQGTQVTVSS”, the “polyreactivity (PSR sort gate)” value was “low polyreactivity”.

In the case of “QVQLVESGGGLVQAGGSLRLSCAASGRTIASYAMGWYRQAPGKERELVAAITSGGSTYYADSVKGRFTISRDNAKNTVYLQINSLKPEDTAVYYCARKHAIWRGYDYWGQGNQVTVSS”, the “polyreactivity (PSR sort gate)” value was “low polyreactivity”. To “QVQLVESGGGLVQAGGSLRLSCAASGRTIASYAMGWYRQAPGKERELVAAITSGGSTYYADSVKGRFTISRDNAKNTVYLQMNSLKPEDTAVYYCAAYVRPAYYAIHVDYWGQGTQVTVSS” belongs “low polyreactivity”; to “QVQLVESGGGLVQAGGSLRLSCAASGRTIGPYVMGWYRQAPGKERELVAAITYIGDRTYYADSVKGRFTISRDNAKNTVYLQMNSLKPEDTAVYYCNADFFSRWGYRYMDYWGQGTQVTVSS”, “low polyreactivity”.

Turning to “QVQLVESGGGLVQAGGSLRLSCAASGRTIGTYAMGWYRQAPGTERELVAAIRSNAGSTYYADSVKGRFTISRDNGKNTVYLQMNSLKPEDTAVYYCAKSYRSSRRYNYWGQGTQVTVSS”, the “polyreactivity (PSR sort gate)” value is given as “high polyreactivity”. On to “QVQLVESGGGLVQAGGSLRLSCAASGRTIGYYAMGWYRQAPGKERELDAAITRSGGSTYYADSVKGRFTISRDNAKNTVYLQMKSLKPEDTAVYYCATYSVSGKPLGYWGHGTQVTVSS”, for which the “polyreactivity (PSR sort gate)” value was “low polyreactivity”.

For the sequence “QVQLVESGGGLVQAGGSLRLSCAASGRTIKVYAMGWYRQAPGKERELVAAISYSGAGTRYADSVKGRFTISRDNAKNTVYLQMNSLKPEDTAVYYCNTDAWARVKRYEYWGQGTQVTVSS”, the “polyreactivity (PSR sort gate)” value was “low polyreactivity”. In the case of “QVQLVESGGGLVQAGGSLRLSCAASGRTILLNDMGWYRQAPGKERELVAGITRSGGSTYYADSVKGRFTISRDNAKNTVYLQMNSLKPEDNAVYYCAADFKPLYYDEYDYWGQGTQVTVSS”, the “polyreactivity (PSR sort gate)” value is given as “low polyreactivity”.

In the case of “QVQLVESGGGLVQAGGSLRLSCAASGRTINRYAMGWYRQAPGKERELVAVITSDGRTNYADSVKGRFTISRDNAKNTVYLQMNSLKPEDTAVYYCNKRSALSFVYDFDYWGQGTQVTVSS”, the “polyreactivity (PSR sort gate)” value is on record as “low polyreactivity”.

Consider “QVQLVESGGGLVQAGGSLRLSCAASGRTIPAYTMGWYRQAPGKERELVAAINWSGGSTYYADSVKARFTISRDNAKNCVYLQMISLNPEDTAVYYCARTSRYYGFRSYGTLDYWGQGTQVTVSS”, for which the “polyreactivity (PSR sort gate)” value is “high polyreactivity”. Turning to “QVQLVESGGGLVQAGGSLRLSCAASGRTIPWNVMGWYRQAPGKERELVATITSRRTSTNYADSVKARFTISRDNAKNTVYLPMNSLKPEDTAVYYCARRTVWGAGHYYYWGQGTQVTVSS”, the “polyreactivity (PSR sort gate)” value is recorded as “high polyreactivity”.

As for “QVQLVESGGGLVQAGGSLRLSCAASGRTIRENVMGWYRQAPGKERELVAAITGNDGTTYYADSVKGRFTISRDNAKNTVYLQMNSLKPEDTAVYYCAARPYLGYIGYDYWGQGTQVTVSS”, the “polyreactivity (PSR sort gate)” value was “low polyreactivity”. As to “QVQLVESGGGLVQAGGSLRLSCAASGRTIRHNAMGWYRQARGKERELVGAISRSGGATYYADSVKGRFTISRDNAKNTVYLQMNSLKPEDTAVYYCAAGYHIIYTPEYYYWGQGTQVTVSS”, the “polyreactivity (PSR sort gate)” value is reported as “high polyreactivity”.

Consider “QVQLVESGGGLVQAGGSLRLSCAASGRTIRYYTMGWYRQAPGKEREFVAAISSTGGTYYADSVKGRFTISRDNAKNTVYLQMNSLKPEDTAVYYCAATFIQVVVNVQLYDYDYWGQGTQVTVSS”, for which the “polyreactivity (PSR sort gate)” value is reported as “low polyreactivity”. Take “QVQLVESGGGLVQAGGSLRLSCAASGRTISHNAMGWYRQPPGKESELVAAISSGGGSTYYGDSVKGRFTISRDNAKNTVYVQMNSLKPEDTAVYYCAAPSYGRSRGFGLGINKYDYWGQGTQVTVSS”: the “polyreactivity (PSR sort gate)” value is “high polyreactivity”.
